Data on 15 substances can be found in patent US20240368668A1, “SUBSTRATES AND BIOMARKERS OF ADAMTS7” (The Broad Institute, Inc., priority 2021, published 2024).

The target in this experiment is T1, mouse ADAMTS7 (Mus musculus, UniProt Q68SA9, E373Q).
T1 construct: Full-length mouse Adamts7 1-1857 (Uniprot Q68SA9, WT or E373Q catalytic mutant); expressed in transfected cells; host or cells: Human Coronary Artery Smooth Muscle Cells (HCA-SMC, Lonza), adenovirus 50 MOI
T1 sequence (Q68SA9 221-1657 E373Q): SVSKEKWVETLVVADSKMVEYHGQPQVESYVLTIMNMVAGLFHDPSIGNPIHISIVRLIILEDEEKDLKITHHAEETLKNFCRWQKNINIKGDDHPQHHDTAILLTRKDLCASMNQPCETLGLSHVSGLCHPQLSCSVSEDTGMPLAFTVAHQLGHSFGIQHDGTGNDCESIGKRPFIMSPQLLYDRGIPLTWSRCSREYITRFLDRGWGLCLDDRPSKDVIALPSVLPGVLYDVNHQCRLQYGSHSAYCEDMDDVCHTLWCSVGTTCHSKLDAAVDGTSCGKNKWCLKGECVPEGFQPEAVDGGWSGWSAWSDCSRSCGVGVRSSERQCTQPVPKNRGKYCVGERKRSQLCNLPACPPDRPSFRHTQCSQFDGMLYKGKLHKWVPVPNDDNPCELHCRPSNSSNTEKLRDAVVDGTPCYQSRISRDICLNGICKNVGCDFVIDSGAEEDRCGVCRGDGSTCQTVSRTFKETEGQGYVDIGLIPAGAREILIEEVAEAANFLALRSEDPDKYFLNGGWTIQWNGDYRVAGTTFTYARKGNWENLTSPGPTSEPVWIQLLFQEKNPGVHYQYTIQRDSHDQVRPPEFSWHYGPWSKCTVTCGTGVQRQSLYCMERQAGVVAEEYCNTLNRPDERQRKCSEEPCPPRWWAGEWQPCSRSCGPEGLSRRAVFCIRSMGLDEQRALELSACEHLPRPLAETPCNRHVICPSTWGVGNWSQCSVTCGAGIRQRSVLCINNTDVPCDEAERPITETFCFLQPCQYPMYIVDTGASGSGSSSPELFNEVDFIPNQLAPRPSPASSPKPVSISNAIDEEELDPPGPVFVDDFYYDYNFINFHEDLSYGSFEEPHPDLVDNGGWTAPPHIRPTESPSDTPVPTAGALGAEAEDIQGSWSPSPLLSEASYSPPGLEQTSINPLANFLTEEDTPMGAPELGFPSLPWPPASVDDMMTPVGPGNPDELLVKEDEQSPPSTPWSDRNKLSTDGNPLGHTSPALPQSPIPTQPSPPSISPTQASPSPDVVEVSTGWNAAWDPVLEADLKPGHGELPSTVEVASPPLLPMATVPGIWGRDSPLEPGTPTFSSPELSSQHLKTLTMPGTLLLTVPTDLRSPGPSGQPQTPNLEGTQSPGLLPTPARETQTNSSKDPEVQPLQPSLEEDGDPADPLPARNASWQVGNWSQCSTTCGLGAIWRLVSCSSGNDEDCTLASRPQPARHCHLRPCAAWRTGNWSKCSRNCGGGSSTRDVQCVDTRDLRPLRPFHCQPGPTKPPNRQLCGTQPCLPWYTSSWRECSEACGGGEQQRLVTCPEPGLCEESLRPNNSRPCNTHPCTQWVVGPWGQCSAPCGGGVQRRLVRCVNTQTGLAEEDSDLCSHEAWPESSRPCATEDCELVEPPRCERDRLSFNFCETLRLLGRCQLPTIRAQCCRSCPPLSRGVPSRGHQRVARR
The experiment can be described thus: TMT10 TAILS N-terminomics, HUVEC experiment (process replicates, trypsin/AspN digest). The experiment is classed as cell-based, human. The conditions noted are these: HUVEC TAILS HC; log fold change of N-terminal peptide, Ad-mADAMTS7 EQ over Luc. The method, boiled down:
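Full-length mouse ADAMTS7 (WT or E373Q mutant, C-terminal 3xFLAG) or luciferase was transduced via adenovirus, 50 MOI, into HCA-SMC (SMC1, SMC2) or HUVEC. SMC1: pooled media, technical triplicates 400 ug; SMC2: process triplicates 300 ug; HUVEC: process triplicates 200 ug, bFGF2 10 ng/ml.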
As for “COL18A1_1505 (LQPPVVQLHDSNPYPR; listed as Homo sapiens)”, the logFC.mEQ.over.Luc is given as −0.84.

For the substance “LTBP2_79 (VAGLQPVER; listed as Homo sapiens)”, the logFC.mEQ.over.Luc was −0.38. Next, “LTBP2_250 (SAAGEGTLAR; listed as Homo sapiens)”: 0.12; “LTBP2_502 (LVENSVETRPPPWLPASPGHSLW; listed as Homo sapiens)”: −0.22; “LTBP3_208 (FLVPLGPGQISA; listed as Homo sapiens)”: −0.60. On to “MAP4_815 (AVASTGPSSR; listed as Homo sapiens)”, for which the logFC.mEQ.over.Luc is reported as 0.36.

“MAP4_816 (VASTGPSSR; listed as Homo sapiens)”: the logFC.mEQ.over.Luc was determined as 0.08.

As to “NID1_360 (FHQQHPQVI; listed as Homo sapiens)”, the logFC.mEQ.over.Luc is given as −0.30.

In turn, “NID2_291 (HSSVPLGR; listed as Homo sapiens)” came in with a logFC.mEQ.over.Luc of −0.10.

“NUCB1_317 (FLASTQR; listed as Homo sapiens)”: the logFC.mEQ.over.Luc was 0.06. Consider “NUCB1_389 (LQQAVLHMEQR; listed as Homo sapiens)”, for which the logFC.mEQ.over.Luc was −0.22. For “SERBP1_56 (QAAAQTNSNAAGKQLR; listed as Homo sapiens)” the value was −0.20; for “SPOCK1_27 (LAGGAGPNHGNFL; listed as Homo sapiens)”, −0.17. Next, “SRGN_59 (LLPGESNKIPR; listed as Homo sapiens)”: −0.13. On to “THBS2_290 (LSENLKR; listed as Homo sapiens)”, for which the logFC.mEQ.over.Luc is recorded as 0.64.
